To fix the notation:
T1: PPM1A (human, UniProt P35813 1-382)
T1 sequence (looked up): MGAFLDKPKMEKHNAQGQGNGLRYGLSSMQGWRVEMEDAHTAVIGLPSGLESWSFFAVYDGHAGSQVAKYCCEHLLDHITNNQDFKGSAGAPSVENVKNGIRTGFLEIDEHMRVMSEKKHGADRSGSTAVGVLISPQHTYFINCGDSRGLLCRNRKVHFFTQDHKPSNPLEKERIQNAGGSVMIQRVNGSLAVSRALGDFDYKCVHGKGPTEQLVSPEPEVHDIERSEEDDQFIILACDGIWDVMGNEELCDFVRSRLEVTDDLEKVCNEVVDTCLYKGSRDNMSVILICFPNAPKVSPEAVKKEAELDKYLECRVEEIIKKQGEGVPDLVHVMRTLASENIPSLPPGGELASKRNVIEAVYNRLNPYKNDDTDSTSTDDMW

B1: S2LMH2EEE Y366A-W368A (domain or fragment)
chain: not shown
B2: MAN1 fragment from amino acids 755 to 911 (MAN1Luhm) (domain or fragment, human, UniProt Q9Y2U8 755-911, looked up)
chain: DKILVIPSKVWQGQAFHLDRRNSPPNSLTPCLKIRNMFDPVMEIGDQWHLAIQEAILEKCSDNDGIVHIAVDKNSREGCVYVKCLSPEYAGKAFKALHGSWFDGKLVTVKYLRLDRYHHRFPQALTSNTPLKPSNKHMNSMSHLRLRTGLTNSQGSS

Values joined by “and” are separate entries in the source; they are usually repeats but may differ in a detail not shown here. Identical values can stand only once.

The data set “SEC” concerns the molecule itself. Kind of data set: SEC. (In general: Size exclusion chromatography separates by hydrodynamic size, large species first.)
In data set [1] the target is S2LMH2EEE/S4LMH2 heterotrimer (human, UniProt Q15796 186-467; Q13485 273-552, SSMS to EEME). Kind of data set: ITC.
The data set “S2LMH2EEE Y366A-W368A” addresses B1. Put plainly: ITC. (In general: Isothermal titration calorimetry measures the heat released or taken up as one component is titrated into another.)
A further data set concerns the target T1, PPM1A. Kind of data set: NMR titration.

Drawing on paper PMC3843637 (Science signaling, 2013), this text covers binding result, Kd and dH for two molecules.

With B1, in the data set “SEC”, the binding result is on record as “binds”.

The Kd is the free concentration of one partner at which half of the binding sites on the other are occupied at equilibrium, for simple one-to-one binding. The low end stands for tighter binding, the high end for weaker binding. For B2, in data set [1], the dissociation constant Kd was 1.25 µM and 1.3 µM; the dH was -8.4 kcal/mol. In the data set with S2LMH2EEE Y366A-W368A, the Kd is 37.9 µM and 33.9 µM; the dH is -1.6 kcal/mol and -1.4 kcal/mol. Besides, in the data set with PPM1A, the binding result is “binds”.
